In paper PMC9232852 (2022):

T1: BTN2A1 ID271 (Homo sapiens, UniProt Q7KYR7)
T1 chain: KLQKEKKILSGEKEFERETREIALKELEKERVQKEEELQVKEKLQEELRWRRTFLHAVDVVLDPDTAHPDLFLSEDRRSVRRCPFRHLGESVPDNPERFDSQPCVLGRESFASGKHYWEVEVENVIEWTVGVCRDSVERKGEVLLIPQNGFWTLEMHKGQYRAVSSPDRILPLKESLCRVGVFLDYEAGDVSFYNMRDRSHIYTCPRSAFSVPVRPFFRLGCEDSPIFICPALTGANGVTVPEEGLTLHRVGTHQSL

T2: BTN2A1 ID309 (Homo sapiens, UniProt Q7KYR7)
T2 chain: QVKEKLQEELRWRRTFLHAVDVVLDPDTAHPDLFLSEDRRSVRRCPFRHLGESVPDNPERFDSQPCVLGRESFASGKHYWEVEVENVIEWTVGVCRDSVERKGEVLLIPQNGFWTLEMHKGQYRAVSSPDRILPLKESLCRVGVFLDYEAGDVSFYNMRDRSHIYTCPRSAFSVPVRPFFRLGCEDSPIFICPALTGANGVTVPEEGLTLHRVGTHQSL

B1: BTN3A1 B30.2 (protein)
chain: not shown
modifications: HMBPP
B2: BTN3A1 BFI (full intracellular domain) (protein)
chain: not shown
modifications: HMBPP

Experiments:
[1] = target: T1, BTN2A1 ID271; assay: ITC
[2] = target: T2, BTN2A1 ID309; assay: ITC

Row | Binder | Kd [1] [nM] | Kd [2] [nM]
1 | B1 | 463 | 
2 | B2 | 886 | 674
